Experimental data from US20260258115A1 (MAPP BIOPHARMACEUTICAL, published 2026).

What was measured:
[1] = biological target: RSV F on recombinant mKate-RSV A2 virus (Respiratory syncytial virus A2, UniProt P03420 26-574); assay: cell-based or functional assay
[2] = biological target: RSV F on recombinant mKate-RSV B 18537 virus (Respiratory syncytial virus B 18537, UniProt P13843 26-574); assay: cell-based or functional assay
[3] = biological target: RSV prefusion F, subtype A (preF, DS-Cav1 trimer) (Respiratory syncytial virus subtype A, UniProt P03420 26-513); assay: BLI, IgG apparent affinity
[4] = biological target: RSV F on RSV-A2 virus (Respiratory syncytial virus, RSV-A2, UniProt P03420 26-574); assay: cell-based or functional assay
[5] = biological target: RSV postfusion F (postF), F ΔFP (Respiratory syncytial virus, UniProt P03420 26-513); assay: BLI, IgG on anti-human IgG sensor
[6] = biological target: RSV prefusion F (preF), DS-Cav1 (Respiratory syncytial virus, UniProt P03420 26-513); assay: BLI, IgG on anti-human IgG sensor, 100 nM antigen
[7] = biological target: RSV postfusion F (postF), F deltaFP (respiratory syncytial virus, UniProt P03420 26-513); assay: BLI, IgG on sensor
[8] = biological target: RSV fusion glycoprotein (RSV F) on RSV-A2 virus (respiratory syncytial virus, UniProt P03420 26-574); assay: cell-based or functional assay
[9] = biological target: RSV prefusion F (preF), DS-Cav1 (respiratory syncytial virus, UniProt P03420 26-513); assay: BLI, IgG on sensor, 100 nM antigen

B1: ADI-21078 (antibody, V domains shown)
VH: EVQLVESGGGLVKPGGSLRLSCAASGFRLSDYYMSWIRQAPGKGLEWISDISGGSTYTNYADSVKGRLTISRDNAQNSLYLQMNSLRAEDTAVYYCARWGSGGPDAFHFWGQGTTVTVSS
VL: QSVLTQPPSVSGVPGQRVTISCTGSRSNIGAGYDVHWYRQLPGTAPKLLIYGNSNRPSGVPDRFSGSKSGTSASLAITGLQADDEADYYCQSYDSSLSGSVIFGGGTKVTVL
Neut IC50 (ug/ml) subtype A [1]: 0.03 µg/mL
Neut IC50 (ug/ml) subtype B [2]: 0.2 µg/mL
Kd [3]: 0.311 nM

B2: ADI-41756 (antibody, V domains shown)
VH: EVQLLESGGGVVQPGRSLRLSCAASGLSFNSFGMHWVRQAPGKGLEWVAVIAYDGSNKYYADSVKGRFSISRDNSKNTLYLQMDSLRAEDTAVYYCAKAEAPNFSWSGYLSAFDIWGQGTTVTVSS
VL: QPVLTQPASVSGSPGQSVTVSCTGTSDDVGDYNYVSWYQQHPGKAPKLLIFEVSDRPSGVSTRFSGSKSGNTASLTISGLQTEDEADYYCSSYTSRNLYVFGTGTKVTVL
Neutralization IC50 (RSV subtype A) [4]: > 25 µg/mL
binding result [5]: no binding (tested: 100 nM antigen)
Kd [6]: 29 nM

B3: ADI-21069 (antibody, V domains shown)
VH: EVQLVESGAEVRKPGASVKVSCKASGYTFSSNAISWVRQAPGQGLEWMGYISVFNGNTKYAQNLQGRVTMTTDTATSTVYMELRSLRYDDTAIYYCARESLGMGGFYFDHWGQGTLVTVSS
VL: SYELTQPPSVSVAPGQTARITCGANNIGSDSVHWYQQKPGQAPVLVVFDDRDRPSGIPERFSGSNSGNTATLTISRVEAGDEADYYCQVWMTSDRSVFGGGTKLTVL
Neut IC50 (ug/ml) subtype A [1]: 0.11 µg/mL
Neut IC50 (ug/ml) subtype B [2]: 0.26 µg/mL
Kd [3]: 0.123 nM

B4: ADI-21080 (antibody, V domains shown)
VH: EVQLLESGGGLVKPGGSLRLSCEVSGFRLSDYYMSWIRQAPGKGLEWVSHISGGSTYTNYADSVKGRFTISRDNGKKSMYLQMNSLRAEDTALYYCAKWGSGGPEAFDIWGRGTMVTVSS
VL: QSALIQPPSVSGAPGQRVTISCTGSSSNIGAGYDVHWYQQIPGTAPKLLIYGNNNRPSGVPDRFSGSKSGTSASLAITGLQAEDEADYYCQSYDNSLSGSVVFGGGTKLTVL
Neut IC50 (ug/ml) subtype A [1]: 0.1 µg/mL
Neut IC50 (ug/ml) subtype B [2]: 0.17 µg/mL
Kd [3]: 0.36 nM

B5: ADI-41454 (antibody, V domains shown)
VH: QVQLVQSGAEVKKPGASVKVSCKASGYTFTHFGISWVRQAPGQGLEWMGWISIYNGNTNYAQKIQGRATMTTDASTSTAYMELRSLTSDDTAVYYCAREPPSTTAAATSDYWGQGTLVTVSS
VL: DIVMTQSPLSLPVTLGQPASISCRSSQSLVYIEGNTYLSWFQQRPGQSPRRLIYKVSNRDSGVPDRFSGSGSGTDFTLKISRVEAEDVGLYYCMQGTHWPRTFGQGTKLEIK
notes: IgG1; also called Ab 738
binding result [7]: no binding (tested: 100 nM antigen)
Neutralization IC50 (RSV subtype A) [8]: 0.88 µg/mL
Kd [9]: 0.588 nM

B6: ADI-41790 (antibody, V domains shown)
VH: QVQLVQSGAEVKKPGSSVKVSCKASGGTFSNYGISWVRQAPGQGLERLGGIIPIYGTANHAQNFQGRVTITADESTSTAYMELSSLRSEDTAVYYCARDGTFVRYYGMDVWGQGTTVTVSS
VL: EIVLTQSPATLFLSPGERATLSCRASQSVSNYLAWFQQKPGQAPRLLIYDTSIRATGIPARFSGSGSGTDFTLTISSLEPEDFAFYYCQQRSNWPPTFGGGTKLEIK
Neutralization IC50 (RSV subtype A) [4]: > 25 µg/mL
binding result [5]: no binding (tested: 100 nM antigen)
Kd [6]: 3.15 nM

B7: ADI-41787 (antibody, V domains shown)
VH: EVQLLESGGGVVQPGRSLRLSCAASGFTFSSSGMHWVRQAPGKGLEWVAIISSDGSKHYYADSVKGRFTISRDNSKNTLYLEMNSLRAEDSAVYYCAREGVWSGFFVDTGTDFRHHGMDVWGQGTTVTVSS
VL: SYELTQPPSVSVSPGQTARITCSGDALPKKFAFWYQQKSGQAPLLVIHEDNKRPSGIPERFSGSSSGTLATLTISGAQVEDEADYYCYSIDTSANLGVFGGGTKLTVL
Neutralization IC50 (RSV subtype A) [4]: 0.38 µg/mL
binding result [5]: no binding (tested: 100 nM antigen)
Kd [6]: 1.56 nM
